# Laboratory results: article PMC4549619, “Engineering catechol 1, 2-dioxygenase by design for improving the performance of the cis, cis-muconic acid synthetic pathway in Escherichia coli” (Scientific Reports, 2015)
# B1: catechol 1,2-dioxygenase (CatA) (Acinetobacter baylyi ADP1) (protein)
# chain: MEVKIFNTQDVQDFLRVASGLEQEGGNPRVKQIIHRVLSDLYKAIEDLNITSDEYWAGVAYLNQLGANQEAGLLSPGLGFDHYLDMRMDAEDAALGIENATPRTIEGPLYVAGAPESVGYARMDDGSDPNGHTLILHGTIFDADGKPLPNAKVEIWHANTKGFYSHFDPTGEQQAFNMRRSIITDENGQYRVRTILPAGYGCPPEGPTQQLLNQLGRHGNRPAHIHYFVSADGHRKLTTQINVAGDPYTYDDFAYATREGLVVDAVEHTDPEAIKANDVEGPFAEMVFDLKLTRLVDGVDNQVVDRPRLAV
# Assays:
# Oc1ccccc1O = assay: initial rates, OD260 product formation, Michaelis-Menten nonlinear fit; format: biochemical, Acinetobacter baylyi; details: 100 mM potassium phosphate pH 7.4, 25 °C, catechol 0-200 μM
# From the text: (§1) initial rates, OD260 product formation, Michaelis-Menten nonlinear fit on catechol 1,2-dioxygenase (CatA)
# [1] = substrate: Oc1ccccc1O; assay: as above; format: biochemical, Acinetobacter baylyi; details: 100 mM potassium phosphate pH 7.4, 25 °C, catechol 0-200 μM; remark: listed apart in the source
# From the text: as §1
Molecule,Km (Oc1ccccc1O) [µM],kcat (Oc1ccccc1O) [s⁻¹],Km [1] [µM],kcat [1] [s⁻¹]
"catechol 1,2-dioxygenase (CatA) (Acinetobacter baylyi ADP1; L73F)",151.09 ± 10.299,5.65 ± 0.163,,
"catechol 1,2-dioxygenase (CatA) (Acinetobacter baylyi ADP1; L73F/P76A)",45.96 ± 7.691,39.5 ± 0.221,,
"catechol 1,2-dioxygenase (CatA) (Acinetobacter baylyi ADP1; P76A)",65.91 ± 7.753,46.56 ± 0.201,,
B1,,,7.88 ± 1.239,7.86 ± 0.248
